The record followed here is patent publication EP4480965A1, “TRANSFERRIN RECEPTOR-BINDING MOLECULES, CONJUGATES THEREOF AND THEIR USES TO PREVENT OR TREAT CNS DISEASES” (Vect-Horus, priority 2023, dated 2024).

This test deals with murine SOD1 mRNA. In words: CNS knock-down of SOD1 mRNA after single ICV administration (RT-qPCR). The class given is in vivo, C57Bl/6 mice. The settings on record: seven days. The method, then:
VHH-siSOD 1m conjugates were assessed for their potential to mediate murine SOD1 mRNA knock-down in the brain and spinal cord following intracerebroventicular (ICV) administration in wild-type C57Bl/6 mice. Wild-type C57Bl/6 mice (4 per group) were injected a single ICV dose (right lateral ventricle, 5-10 µL at 0.75 µL/min) of 100 µg (siRNA molar equivalent) of PBS vehicle (control), unconjugated siSOD1m-5'VP or the indicated VHH-siSOD1m-5'VP conjugates. Seven days after injection, tissue samples including total brain (right hemisphere), brain regions (from the left hemisphere), spinal cord and the liver were withdrawn, snap-frozen in 10 vol. ofNucleoProtect RNA stabilization reagent (Macherey-Nagel) and stored at -20°C. Frozen tissue samples were homogenized in QUIAzol lysis reagent using a Precellys Evolution tissue homogenizer equipped with a Cryolys Evolution cooling system (Bertin Instruments). Total RNA was extracted from tissue homogenates using the rNeasy 96 QIAcube HT Kit (QIAGEN) in a QIAcube HT system. RNA samples were analyzed and dosed using a Fragment Analyzer RNA kit in a Fragment Analyzer system (Agilent). Relative RNA expression levels were quantified by RT-qPCR using the TaqMan™ Fast Universal PCR Master Mix (2X) no AmpErase™ UNG kit (Applied Biosystems) and commercially available TaqMan™ probes for murine SOD1 and RpL13 genes (Applied Biosystems). Expression data were analyzed using the ΔΔCq method normalized to the expression of the reference RpL13 gene, based on raw quantification cycle (Cq) values (Bustin et al.). The results are expressed as means ± standard error of the mean (SEM) and are presented as mRNA levels relative to the control animals injected with PBS.
Biodistribution of VHH-siRNA conjugates and CNS knock-down of the target SOD1 mRNAVHH-siSODlm conjugates were evaluated using in situ hybridization methods (ISH) on brain and spinal cord samples following single ICV administration in wild-type mice. […]
Background: Quantitative PCR measures a nucleic acid by following its amplification.

B1: C5-siSOD1m-5'VP: TfR-binding VHH-siRNA conjugate wherein VHH is C5 (conjugate)
VHH: EVQLVESGGGVVQPGGSLKLSCVASGTDFSINFIRWYRQAPGKQREFVAGFTATGNTNYADSMKGRFTISRDNTKNAVYLQIDSLKPEDTAVYYCYMLDKWGQGTQVTVSSAAAEQKLISEEDLNGAAHHHHHHGS
As to B1, under “single ICV dose 100 µg (siRNA molar equivalent)”, the “SOD1 mRNA knock-down (KD) in brain and spinal cord” value is given as 80-90%. Besides, under “single ICV dose 100 µg”, the “SOD1 mRNA KD in brain regions of the left hemisphere” value is 60-90% and the “downregulation of SOD1 mRNA in all regions tested of the brain ipsilateral (right) hemisphere” value is given as 70-90%.
